Assays:
mouse serum albumin = biological target: T1, mouse serum albumin (mouse, UniProt P07724 25-608); assay: SPR, Biacore T200, single cycle kinetics, MSA amine coupled to CM5 chip, pH 7.4
T1 construct: also called MSA
Procedure: (§1) Binding studies with human, cyno and mouse serum albumin in pH 7.4 and pH 6.0 were carried out using single cycle kinetics on a Biacore T200. Serum albumin (HSA, CSA, MSA) were coupled to CM5 chip by amine coupling using the amine reagent coupling kit GE Healthcare BR-1000-50. The surface of the chip was activated according to manufacturer's instructions. Serum albumin (HSA, CSA, MSA) were captured and cross-linked to the sensor chip surface by injecting of serum albumin (HSA, CSA, MSA) in 10 mM sodium acetate, pH 5.0. Following with the injection of 1M Ethanolamine to stabilise the serum albumin on the surface. With this procedure around 300 RU were immobilized.
(§2) For kinetics measurement four-fold serial dilution of the VH single domain antibodies (194D04-2 or 191 E02-2) in either PBST pH 7.4 or PBST pH 6.0 were injected with 120s association and 300s dissociation at the flow rate of 45 μl/min at 25° C. Binding response was corrected by subtracting both the blank flow cell and from buffer run on the same flow cell. The traces were fitted using 1:1 model.

Human Serum Albumin [1] = biological target: T2, Human Serum Albumin (human, UniProt P02768 25-609); assay: SPR, Biacore T200, single cycle kinetics, albumin amine coupled to CM5 chip, 25 C, pH 6.0
T2 construct: also called HSA
Procedure: as §1, §2

Cyno Serum Albumin [2] = biological target: T3, Cyno Serum Albumin (cyno, UniProt A2V9Z4 25-608); assay: as above
T3 construct: Serum purified CSA (Abcam ab184894) is named for immunisation; also called CSA; cynomolgus serum albumin
Procedure: as §1, §2

Human Serum Albumin [3] = biological target: T2, Human Serum Albumin; assay: SPR, Biacore T200, single cycle kinetics, albumin amine coupled to CM5 chip, 25 C, pH 7.4
Procedure: as §1, §2

Cyno Serum Albumin [4] = biological target: T3, Cyno Serum Albumin; assay: as above
Procedure: as §1, §2

| Binder | binding result (mouse serum albumin) | Kd (Human Serum Albumin [1]) [nM] | koff (Human Serum Albumin [1]) [s⁻¹] | kon (Human Serum Albumin [1]) [M⁻¹ s⁻¹] | Kd (Cyno Serum Albumin [2]) [nM] | koff (Cyno Serum Albumin [2]) [s⁻¹] | kon (Cyno Serum Albumin [2]) [M⁻¹ s⁻¹] | Kd (Human Serum Albumin [3]) [nM] | koff (Human Serum Albumin [3]) [s⁻¹] | kon (Human Serum Albumin [3]) [M⁻¹ s⁻¹] | Kd (Cyno Serum Albumin [4]) [nM] | koff (Cyno Serum Albumin [4]) [s⁻¹] | kon (Cyno Serum Albumin [4]) [M⁻¹ s⁻¹] |
| --- | --- | --- | --- | --- | --- | --- | --- | --- | --- | --- | --- | --- | --- |
| SEQ ID NO. 30 (VH single domain antibody binding HSA, variant of SEQ ID NO. 1) (VHH, Human VH single domain antibody (Humabody) from a transgenic mouse, not a camelid VHH; also called Humabody VH; variant of Humabody 1) VHH: EVQLVESGGGLVKPGGSLRLSCAASGFTFSNYNMNWVRQAPGKGLEWVSSISSAGTHIYYADSVKGRFTISRDNAKNSLYLQMNSLRAEDTAVYYCARDPHSTGWYKDFDYWGQGTLVTVSS | no binding | 600 | 0.32 | 530000 | 99 | 0.0644 | 640000 | 590 | 0.19 | 330000 | 100 | 0.041 | 290000 |
| SEQ ID NO. 5 (VH single domain antibody binding HSA) (VHH, Human VH single domain antibody (Humabody) from a transgenic mouse, not a camelid VHH; also called Humabody 2; Humabody VH) VHH: EVQLLESGGGLVKPGGSLRLSCAASGFTVSSYTMNWVRQAPGKGLEWVSSISSSGRYIYYADSVKGRFTISRDNAKNSLYLQMNSLRAEDTAVYYCARDPRMVGNPHEFDIWGQGTMVTVSS | no binding | 37 | 0.031 | 840000 | 4.9 | 0.0032 | 640000 | 30 | 0.019 | 620000 | 11 | 0.0065 | 570000 |

Source: US20220227850A1 (CRESCENDO BIOLOGICS, published 2022)
